In PMC11696893, “Enzymatic synthesis of reactive RNA probes containing squaramate-linked cytidine or adenosine for bioconjugations and cross-linking with lysine-containing peptides and proteins”:

Legend:
[1] = molecular target: SARS-CoV-2 nucleoprotein (SC_NP) (SARS-CoV-2, UniProt P0DTC9 1-419); experiment: EMSA; conditions: protein: recombinant; chain copies: 2; label: radioactive
[2] = molecular target: JEV NS5 (Japanese encephalitis virus, UniProt P27395 2528-3432); experiment: EMSA; conditions: protein: recombinant; label: radioactive
[3] = molecular target: YFV NS5 (Yellow fever virus, UniProt P03314 2507-3411); experiment: EMSA; conditions: protein: recombinant; label: radioactive
[4] = molecular target: T7 RNA polymerase (bacteriophage T7, UniProt P00573 1-883); conditions: label: radioactive
[5] = molecular target: HIV reverse transcriptase (HIV-rt) (HIV, UniProt P04585;P04585 588-1147;588-1027); conditions: protein: recombinant; copies: 1;1; label: radioactive

B1: 36_vRNA_1gCESQ (ssRNA)
RNA: GAUACUAAGGGAAUAAAUUGAGAGAGAUAAAUUUAU
modifications: C5 = 5-(ethoxysquaramate-linked) cytidine (CESQ)
- binding result [1]: binds
- binding result [2]: binds
- binding result [3]: binds
- binding result [4]: no binding
- binding result [5]: binds
